From paper PMC4894546 (Nature structural & molecular biology, 2016)

T1: NEIL2 (Homo sapiens, UniProt Q969S2 1-332)
T1 sequence: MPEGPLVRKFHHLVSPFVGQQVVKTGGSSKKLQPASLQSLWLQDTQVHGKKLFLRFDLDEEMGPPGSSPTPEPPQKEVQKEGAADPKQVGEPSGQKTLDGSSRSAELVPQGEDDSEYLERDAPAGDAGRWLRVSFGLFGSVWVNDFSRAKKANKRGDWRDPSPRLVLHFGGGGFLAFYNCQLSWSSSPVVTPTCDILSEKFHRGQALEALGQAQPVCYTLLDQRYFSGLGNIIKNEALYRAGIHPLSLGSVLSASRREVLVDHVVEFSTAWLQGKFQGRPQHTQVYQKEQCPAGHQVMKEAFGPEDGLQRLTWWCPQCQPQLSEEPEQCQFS


How the values were obtained:
TDG = TDG (Homo sapiens, UniProt Q13569 1-410); test: EMSA
TDG, sequence (Q13569 whole entry): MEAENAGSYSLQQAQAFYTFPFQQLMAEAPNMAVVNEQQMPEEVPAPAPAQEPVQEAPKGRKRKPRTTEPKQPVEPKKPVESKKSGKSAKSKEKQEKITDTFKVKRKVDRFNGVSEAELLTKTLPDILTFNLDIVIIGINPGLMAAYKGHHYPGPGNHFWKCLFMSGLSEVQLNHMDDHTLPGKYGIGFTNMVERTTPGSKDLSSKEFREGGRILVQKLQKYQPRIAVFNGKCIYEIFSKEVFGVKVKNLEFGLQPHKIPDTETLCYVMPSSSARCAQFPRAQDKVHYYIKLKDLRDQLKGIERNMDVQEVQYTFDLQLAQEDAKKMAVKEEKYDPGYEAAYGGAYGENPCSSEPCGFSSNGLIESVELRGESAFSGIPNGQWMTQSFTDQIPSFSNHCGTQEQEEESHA

NEIL2 [1] = target: T1, NEIL2; test: EMSA
NEIL1 [2] = target: T2, NEIL1 (Homo sapiens, UniProt Q96FI4 1-390); test: EMSA
T2 sequence (Q96FI4 whole entry): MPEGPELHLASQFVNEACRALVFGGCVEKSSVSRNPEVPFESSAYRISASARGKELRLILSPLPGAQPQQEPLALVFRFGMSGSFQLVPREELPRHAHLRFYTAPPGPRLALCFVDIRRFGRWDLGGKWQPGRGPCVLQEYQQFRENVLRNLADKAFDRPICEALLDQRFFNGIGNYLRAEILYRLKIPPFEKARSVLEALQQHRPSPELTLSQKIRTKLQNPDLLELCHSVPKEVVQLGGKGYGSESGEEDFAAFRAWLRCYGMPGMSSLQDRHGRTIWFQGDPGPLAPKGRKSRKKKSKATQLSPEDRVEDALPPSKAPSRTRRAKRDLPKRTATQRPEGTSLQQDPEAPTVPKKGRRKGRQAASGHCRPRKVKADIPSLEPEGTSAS

NEIL1 [3] = target: T2, NEIL1; test: EMSA; remark: listed apart in the source
NEIL2 [4] = target: T1, NEIL2; test: EMSA; remark: listed apart in the source
[5] = target: human thymine DNA glycosylase (TDG), recombinant (human, UniProt Q13569 1-410); test: MST
human thymine DNA glycosylase (TDG), recombinant, sequence (Q13569 whole entry): as the sequence (Q13569 whole entry) above

binding result [5] | Binder | binding result (TDG) | binding result (NEIL2 [1]) | binding result (NEIL1 [2]) | binding signal (NEIL1 [3]) | Kd (NEIL2 [4])
 | 20mer_5caC duplex (5caC:G) (dsDNA, 5-carboxylcytosine at position 11 of strand 1 (hemi-modified)) DNA 1: CGCTAGGATCCGGCCCCGCC DNA 2: GGCGGGGCCGGATCCTAGCG | binds | binds | binds |  | 
 | 20mer_dC duplex (unmodified) (dsDNA) DNA 1: CGCTAGGATCCGGCCCCGCC DNA 2: GGCGGGGCCGGATCCTAGCG |  |  |  | 3 fold lower affinity than AP site duplex | 27 nM
 | 20mer_5fC duplex (5fC:G) (dsDNA, 5-formylcytosine at position 11 of strand 1 (hemi-modified)) DNA 1: CGCTAGGATCCGGCCCCGCC DNA 2: GGCGGGGCCGGATCCTAGCG | binds | binds | binds |  | 
binds | human NEIL2 DNA glycosylase, recombinant (enzyme, UniProt Q969S2 1-332, looked up) MPEGPLVRKFHHLVSPFVGQQVVKTGGSSKKLQPASLQSLWLQDTQVHGKKLFLRFDLDEEMGPPGSSPTPEPPQKEVQKEGAADPKQVGEPSGQKTLDGSSRSAELVPQGEDDSEYLERDAPAGDAGRWLRVSFGLFGSVWVNDFSRAKKANKRGDWRDPSPRLVLHFGGGGFLAFYNCQLSWSSSPVVTPTCDILSEKFHRGQALEALGQAQPVCYTLLDQRYFSGLGNIIKNEALYRAGIHPLSLGSVLSASRREVLVDHVVEFSTAWLQGKFQGRPQHTQVYQKEQCPAGHQVMKEAFGPEDGLQRLTWWCPQCQPQLSEEPEQCQFS |  |  |  |  | 
